In patent US20220372132A1 (SG MEDICAL, published 2022):

Experiments:
[1] = target: T1, α5β1 integrin (R&D Systems, USA) (human, UniProt P08648 42-995; P05556 21-728); assay: indirect ELISA, integrin coated at 1 µg/ml, HRP anti-human Fc detection
T1 construct: Bought heterodimer; also called recombinant human α5β1 integrin
Experimental: (§1) The affinities of the monoclonal antibody GP5 for various integrins were measured by indirect ELISA to determine the specificity of the monoclonal antibody GP5 for beta 1 integrin. Each of recombinant human αVβ1 integrin (R&D Systems, USA), αVβ3 integrin (R&D Systems, USA), αVβ5 integrin (R&D Systems, USA), αVβ6 integrin (R&D Systems, USA), αVβ8 integrin (R&D Systems, USA), α5β1 integrin (R&D Systems, USA), and α2bβ3 integrin (R&D Systems, USA) was diluted to 1 μg/ml in 50 μl of PBS, plated in a 96-well immune plate (Corning, USA), and stored at 4° C. overnight for its adsorption. After incubation with a buffer containing 3% bovine serum albumin (Millipore, USA) at 37° C. for 1 h, the wells were treated with the monoclonal antibody GP5 sequentially diluted to concentrations of 0.01, 0.03, 0.1, 0.3, 1, 3, 100, 300, and 1000 nM (50 μl/well). The well plate was incubated at 37° C. for 2 h to allow the antibody to bind to the antigen and washed 3 times with a buffer containing 0.5% Tween 20 (Amresco, USA). The wells were treated with HRP-labeled anti-human Fc IgG secondary antibody diluted 1:3000 with PBS (50 μl/well). The well plate was incubated at 37° C. for 1 h and washed 3 times with a buffer containing 0.5% Tween 20 (Amresco, USA). […] Absorbance was measured at 450 nm using a spectrophotometer (Biotek, USA).

[2] = target: T2, recombinant human αVβ1 integrin (R&D Systems, USA) (human, UniProt P06756 31-992; P05556 21-728); assay: as above
T2 construct: Bought heterodimer
T2 sequence (P06756 31-992 limits assumed, chain 1 of 2): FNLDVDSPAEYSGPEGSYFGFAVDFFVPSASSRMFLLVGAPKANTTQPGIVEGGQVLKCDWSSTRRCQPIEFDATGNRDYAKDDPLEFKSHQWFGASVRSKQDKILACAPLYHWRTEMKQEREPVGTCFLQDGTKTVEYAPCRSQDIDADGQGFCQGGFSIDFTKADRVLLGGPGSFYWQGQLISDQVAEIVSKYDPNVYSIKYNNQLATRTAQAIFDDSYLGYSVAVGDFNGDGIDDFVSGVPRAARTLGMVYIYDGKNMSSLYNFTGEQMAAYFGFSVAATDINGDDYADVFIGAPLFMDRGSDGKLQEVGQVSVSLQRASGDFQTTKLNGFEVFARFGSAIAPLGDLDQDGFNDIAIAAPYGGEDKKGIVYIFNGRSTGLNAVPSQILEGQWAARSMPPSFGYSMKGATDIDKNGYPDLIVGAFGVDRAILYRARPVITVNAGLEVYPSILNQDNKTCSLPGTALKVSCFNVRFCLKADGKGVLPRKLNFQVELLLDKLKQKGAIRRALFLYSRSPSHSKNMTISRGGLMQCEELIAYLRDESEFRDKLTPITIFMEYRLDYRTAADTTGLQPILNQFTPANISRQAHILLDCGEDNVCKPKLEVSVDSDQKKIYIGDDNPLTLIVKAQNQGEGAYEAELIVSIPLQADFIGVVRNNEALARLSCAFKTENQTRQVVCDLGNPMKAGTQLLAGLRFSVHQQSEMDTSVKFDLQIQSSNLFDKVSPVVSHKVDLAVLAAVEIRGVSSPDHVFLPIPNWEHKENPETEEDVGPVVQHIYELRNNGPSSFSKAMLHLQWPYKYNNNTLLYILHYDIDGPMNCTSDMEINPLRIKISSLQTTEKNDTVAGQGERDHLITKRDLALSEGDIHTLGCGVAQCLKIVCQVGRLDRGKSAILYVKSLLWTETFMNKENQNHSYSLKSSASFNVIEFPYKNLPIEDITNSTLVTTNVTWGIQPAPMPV
T2 sequence (P05556 21-728 limits assumed, chain 2 of 2): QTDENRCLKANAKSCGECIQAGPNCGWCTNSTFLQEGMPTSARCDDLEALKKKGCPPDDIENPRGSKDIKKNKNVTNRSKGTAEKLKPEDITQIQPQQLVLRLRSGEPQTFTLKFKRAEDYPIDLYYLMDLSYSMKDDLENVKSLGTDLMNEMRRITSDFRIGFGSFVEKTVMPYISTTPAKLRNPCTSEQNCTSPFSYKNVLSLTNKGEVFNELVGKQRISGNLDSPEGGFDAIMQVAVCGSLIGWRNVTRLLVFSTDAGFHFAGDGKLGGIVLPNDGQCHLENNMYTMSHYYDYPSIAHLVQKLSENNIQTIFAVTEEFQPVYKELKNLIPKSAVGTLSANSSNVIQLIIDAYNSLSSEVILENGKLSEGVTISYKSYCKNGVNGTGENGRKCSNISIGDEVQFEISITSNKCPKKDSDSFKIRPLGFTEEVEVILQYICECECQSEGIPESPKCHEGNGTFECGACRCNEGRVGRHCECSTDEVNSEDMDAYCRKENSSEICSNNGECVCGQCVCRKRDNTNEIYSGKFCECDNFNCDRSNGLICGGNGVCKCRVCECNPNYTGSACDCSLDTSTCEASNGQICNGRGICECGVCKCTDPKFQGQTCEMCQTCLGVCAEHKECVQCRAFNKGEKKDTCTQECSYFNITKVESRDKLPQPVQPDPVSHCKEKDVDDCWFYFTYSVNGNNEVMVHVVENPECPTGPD
Experimental: as §1

T1 sequence (P08648 42-995 limits assumed, chain 1 of 2): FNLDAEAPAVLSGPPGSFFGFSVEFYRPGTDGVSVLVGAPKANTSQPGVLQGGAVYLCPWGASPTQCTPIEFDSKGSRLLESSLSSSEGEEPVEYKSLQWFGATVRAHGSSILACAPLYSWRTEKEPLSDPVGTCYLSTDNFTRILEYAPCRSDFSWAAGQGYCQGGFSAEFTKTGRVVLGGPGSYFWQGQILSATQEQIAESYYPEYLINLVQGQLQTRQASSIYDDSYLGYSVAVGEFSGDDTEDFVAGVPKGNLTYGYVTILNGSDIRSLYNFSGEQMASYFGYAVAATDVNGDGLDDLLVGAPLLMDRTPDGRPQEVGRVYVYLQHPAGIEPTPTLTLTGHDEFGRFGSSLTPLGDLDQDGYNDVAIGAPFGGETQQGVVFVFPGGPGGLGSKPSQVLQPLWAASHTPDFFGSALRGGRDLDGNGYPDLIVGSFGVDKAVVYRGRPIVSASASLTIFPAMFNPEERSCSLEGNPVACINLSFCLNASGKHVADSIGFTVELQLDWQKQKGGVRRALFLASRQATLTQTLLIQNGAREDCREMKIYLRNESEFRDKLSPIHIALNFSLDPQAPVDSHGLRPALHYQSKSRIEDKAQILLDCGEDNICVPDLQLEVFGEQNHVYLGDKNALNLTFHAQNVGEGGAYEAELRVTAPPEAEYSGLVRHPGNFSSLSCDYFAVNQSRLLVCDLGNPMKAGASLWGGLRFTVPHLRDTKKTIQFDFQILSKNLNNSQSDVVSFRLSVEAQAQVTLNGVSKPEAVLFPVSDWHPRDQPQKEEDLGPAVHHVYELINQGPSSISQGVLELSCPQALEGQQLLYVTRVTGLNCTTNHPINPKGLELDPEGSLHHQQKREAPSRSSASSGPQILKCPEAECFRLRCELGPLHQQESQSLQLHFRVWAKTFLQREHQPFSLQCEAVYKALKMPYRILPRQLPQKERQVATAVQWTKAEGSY
T1 sequence (P05556 21-728 limits assumed, chain 2 of 2): as the sequence (P05556 21-728 limits assumed, chain 2 of 2) above

B1: monoclonal antibody GP5 (antibody, human IgG1, V domains shown)
VH: QVQLQQSGSELMKPGASVKVSCKASGYTFTNYWIEWIVQRPGHGLEWIGEILPGSVNTNYNAKFKDRATFTADTSTDTASMELSSLTSEDSAVYYCALATPYYALDSWGQGTSVTVSS
VL: DIVMTQAAPSLSVTPGESVSISCRSTESLLHSNGNTYLYWYLQKPGQSPQLLIYRMSNRASGVPDRFSGSGSGTAFTLKIRRVEAEDVGVYYCMQHLEYPFTFGAGTKLELK
notes: Full IgG made in HEK293F cells; The humanized VH is joined to a human IgG1 heavy chain constant region (CH1, CH2, CH3) and the VL to a human Ckappa; also called humanized antibody GP5; modified monoclonal antibody (GP5)
Does B1 bind [1]?
Result: binds

Does B1 bind [2]?
Result: binds
